# Tests used:
# [1] = biological target: HLA-A*02:01; assay: IEDB peptide-MHC binding, purified MHC/competitive/fluorescence; ≥ and ≤ were set here for values at or beyond the usual limits of such assays
# [2] = biological target: HLA-A*01:01; assay: IEDB peptide-MHC binding, purified MHC/competitive/radioactivity; filed as Kd, often an IC50 or EC50 that approximates it; ≥ and ≤ were set here for values at or beyond the usual limits of such assays
# [3] = biological target: HLA-A*26:01; assay: as above
# [4] = biological target: HLA-A*02:01; assay: IEDB peptide-MHC binding, purified MHC/direct/fluorescence; filed as Kd, often an IC50 or EC50 that approximates it; ≥ and ≤ were set here for values at or beyond the usual limits of such assays
# [5] = biological target: HLA-A*69:01; assay: as above
# [6] = biological target: HLA-A*30:02; assay: IEDB peptide-MHC binding, purified MHC/competitive/radioactivity; filed as Kd, often an IC50 or EC50 that approximates it; ≥ and ≤ were set here for values at or beyond the usual limits of such assays
# [7] = biological target: HLA-A*23:01; assay: as above
# [8] = biological target: HLA-A*02:02; assay: as above
# [9] = biological target: HLA-A*02:06; assay: as above
# [10] = biological target: HLA-A*02:03; assay: as above
# [11] = biological target: HLA-A*24:02; assay: as above
# [12] = source organism: Zaire ebolavirus
# [13] = source organism: Dengue virus 3 Sri Lanka/1266/2000
# [14] = source organism: Mycobacterium tuberculosis
# [15] = source organism: Salmonella enterica subsp. enterica serovar Typhimurium
# [16] = source organism: Sudan ebolavirus
# [17] = source organism: Giardia lamblia ATCC 50803
# [18] = source organism: Dengue virus 4 Philippines/H241/1956
# [19] = source organism: Dengue virus 2 Jamaica/1409/1983
# [20] = source organism: Vaccinia virus WR
# [21] = source organism: Mammarenavirus machupoense
# [22] = source organism: Mammarenavirus tacaribeense
# [23] = source organism: Dengue virus 4 Dominica/814669/1981
# [24] = source organism: Lymphocytic choriomeningitis virus (strain Armstrong)
# [25] = source organism: SARS coronavirus Tor2
# [26] = source organism: Mammarenavirus whitewaterense
Sequence,"Kd [8, 20] [nM]","Kd [9, 20] [nM]","Kd [10, 20] [nM]",other results
LEELLPAVS,–,–,–,"IC50 [1, 12]: ≥ 141000 nM"
VSLTCSNTIF,–,–,–,"Kd [2, 13]: 7760 nM"
DNPYKTWAY,–,–,–,Kd ([3]; source organism: Dengue virus 1 Brazil/97-11/1997): 6390 nM
AVGIGLRLV,–,–,–,"Kd [4, 14]: 128 nM; Kd [5, 14]: ≥ 20000 nM"
FAHELEMLC,–,–,–,"Kd [4, 15]: 1170 nM; Kd [5, 15]: 720 nM"
NLEGSGVST,–,–,–,"IC50 [1, 16]: 67600 nM"
TSQVPKLLL,–,–,–,IC50 ([1]; source organism: Variola virus): 47400 nM
FMYEDALKS,–,–,–,"Kd [4, 17]: 43.5 nM; Kd [5, 17]: 1360 nM"
ALAPAPAEV,–,–,–,IC50 ([1]; source organism: Homo sapiens): 52 nM
KLTLKGMSY,–,–,–,Kd ([6]; source organism: Dengue virus 1 Singapore/S275/1990): 521 nM
LSSTRVPNY,–,–,–,"Kd [6, 18]: 194 nM; Kd [2, 18]: 2040 nM"
AWLVHRQWFL,–,–,–,"Kd [7, 19]: 97.7 nM"
ELIDVLKTRL,262,1990,118,–
LNKSDSSWAV,–,–,–,"Kd [8, 21]: 550 nM; Kd [9, 21]: 2190 nM; Kd [10, 21]: 5250 nM"
ELTTVFIKYV,2790,463,719,–
NIPELKHGLL,2300,1230,2690,–
MLPESDLDKV,3.23,4.42,1770,–
CVDIFTEGKI,≥ 70000,≥ 20900,17500,–
SISKSNAKC,–,–,–,IC50 ([1]; source organism: Vaccinia virus Copenhagen): 35800 nM
TSETFSMGLL,–,–,–,"Kd [2, 18]: 242 nM"
PLISILMIFI,433,2420,769,–

Sequence,"Kd [8, 20] [nM]","Kd [9, 20] [nM]","Kd [10, 20] [nM]",other results
YNCKCCWFA,–,–,–,"Kd [8, 22]: 16000 nM; Kd [9, 22]: ≥ 77000 nM; Kd [10, 22]: ≥ 31800 nM"
CWCNSTSTW,–,–,–,"Kd [7, 19]: 998 nM; Kd [11, 19]: 1250 nM"
MFGGVSWMI,–,–,–,"Kd [7, 23]: 41.8 nM; Kd [11, 23]: 78.3 nM"
SVMATEEPT,–,–,–,"IC50 [1, 16]: ≥ 115000 nM"
GIIITVGMLI,3580,1130,595,–
KINEMVDEL,1.42,317,75.6,–
IAVFDSKLI,7850,11900,11900,–
PTEMVDVSMM,11500,12100,≥ 70400,–
ASEAVNDSRF,–,–,–,"Kd [2, 18]: ≥ 31400 nM"
SYLAGAGLL,–,–,–,"Kd [11, 19]: 19.4 nM"
EVKQDEDGSF,–,–,–,"Kd [3, 18]: 69.2 nM"
AILGDTAWDF,–,–,–,"Kd [7, 19]: 3710 nM"
IVFGIYKDNL,187,47.8,792,–
IMDKEQLLKI,311,1340,288,–
DTMRIYCSL,5840,2920,5460,–
EDLIEWAME,–,–,–,IC50 ([1]; source organism: Vaccinia virus): ≥ 94700 nM
TIVSRSSRGV,4700,3740,11.1,–
ALMDCIIFES,–,–,–,"Kd [8, 24]: 2.13 nM; Kd [9, 24]: 12.8 nM; Kd [10, 24]: 16.4 nM"
VQEFIFSAL,419,198,466,–
LMDSIFVSTM,3.65,610,8.15,–
LLSAGIFGA,–,–,–,"Kd [8, 25]: 12.3 nM; Kd [9, 25]: 24.6 nM; Kd [10, 25]: 14.9 nM"

Sequence,"Kd [8, 20] [nM]","Kd [9, 20] [nM]","Kd [10, 20] [nM]",other results
LISFFGLFDI,75.9,171,108,–
FVATFRDML,2350,487,206,–
DIPTFNSLNT,2020,45.3,16600,–
DIISSKQYPA,552,3100,2430,–
IVPDIKLDA,6390,3430,15700,–
TVIKTLLEV,–,–,–,"Kd [8, 26]: 2010 nM; Kd [9, 26]: 16.6 nM; Kd [10, 26]: 52.6 nM"
GTTVVKVKY,–,–,–,"Kd [6, 18]: 244 nM"
LIGIEILNT,–,–,–,"IC50 [1, 20]: ≥ 147000 nM"
AGPISQHNY,–,–,–,"Kd [6, 13]: ≥ 76900 nM"
ILDNQGRVV,–,–,–,Kd ([4]; source organism: Venezuelan equine encephalitis virus): 1210 nM
IIELPYVGDT,13700,16900,4420,–
CTMERTNDL,36.2,95.7,25.5,–
HHQDTGEES,–,–,–,"IC50 [1, 12]: ≥ 223000 nM"
RGSGQVGTY,–,–,–,"Kd [6, 19]: 208 nM"
TLNTLITLI,0.989,941,0.596,–
TIGEWAFWE,–,–,–,"IC50 [1, 12]: ≥ 245000 nM"
YTYPDSLEE,–,–,–,"IC50 [1, 12]: ≥ 264000 nM"
VVHGYFTEV,–,–,–,"Kd [8, 25]: 17.2 nM; Kd [9, 25]: 2.63 nM; Kd [10, 25]: 3.27 nM"
DWIPLALTI,–,–,–,"Kd [11, 19]: 16 nM"

# From the Immune Epitope Database (IEDB)
